According to patent publication US20090018029A1:

What follows are substances tested against hIFN receptor (assay: BIAcore biosensor; orientation not stated).

Row | Substance | Kd
1 | 6His-Q48pAF IFNα2A (from UniProt P01563 24-188) (ligand) | 17 nM
2 | 6His-P109pAF IFNα2A (from UniProt P01563 24-188) (ligand) | 17 nM
3 | 6His-L110pAF IFNα2A (from UniProt P01563 24-188) (ligand) | 13 nM
4 | 6His-P39pAF IFNα2A (from UniProt P01563 24-188) (ligand) | 17 nM
5 | C1S IFNa2A (from UniProt P01563 24-188) (ligand) | 11 nM
6 | 6His-R149pAF IFNα2A (from UniProt P01563 24-188) (ligand) | 75 nM
7 | 6His-K31pAF IFNα2A (from UniProt P01563 24-188) (ligand) | 52 nM
8 | 6His-F38S IFNα2A (from UniProt P01563 24-188) (ligand) | 42 nM
9 | 6His-E96pAF IFNα2A (from UniProt P01563 24-188) (ligand) | 12 nM
10 | 6His-K134pAF IFNα2A (from UniProt P01563 24-188) (ligand) | 10 nM
11 | 6His-R125pAF IFNα2A (from UniProt P01563 24-188) (ligand) | 19 nM
12 | 6His-E113pAF IFNα2A (from UniProt P01563 24-188) (ligand) | 19 nM
13 | 6His-Y122S IFNα2A (from UniProt P01563 24-188) (ligand) | 300 nM
14 | 6His-I100pAF IFNα2A (from UniProt P01563 24-188) (ligand) | 10 nM
15 | Sigma IFNαA (from UniProt P01563 24-188) (ligand) | 11 nM
16 | 6His-G37pAF IFNα2A (from UniProt P01563 24-188) (ligand) | 12 nM

Further lines, results first:

Row | Kd | Substance
17 | 10 nM | 6His-K49pAF IFNα2A (from UniProt P01563 24-188) (ligand)
18 | 9 nM | 6His-Y89pAF IFNα2A (from UniProt P01563 24-188) (ligand)
19 | 9 nM | C1S E107pAF IFNα2A (from UniProt P01563 24-188) (ligand)
20 | 8 nM | 6His-R12pAF IFNα2A (from UniProt P01563 24-188) (ligand)
21 | 8 nM | 6His-F27pAF IFNα2A (from UniProt P01563 24-188) (ligand)
22 | 8 nM | 6His-L117pAF IFNα2A (from UniProt P01563 24-188) (ligand)
23 | 8 nM | 6His-T106pAF IFNα2A (from UniProt P01563 24-188) (ligand)
24 | 6 nM | 6His-IFNα2A (from UniProt P01563 24-188) (ligand)
25 | 5 nM | 6His-I24pAF IFNα2A (from UniProt P01563 24-188) (ligand)
26 | 5 nM | 6His-E107pAF IFNα2A (from UniProt P01563 24-188) (ligand)
27 | 4 nM | 6His-H34pAF IFNα2A (from UniProt P01563 24-188) (ligand)
28 | 4 nM | 6His-R120pAF IFNα2A (from UniProt P01563 24-188) (ligand)
29 | 3.5 nM | 6His-E159pAF IFNα2A (from UniProt P01563 24-188) (ligand)

Each substance was assayed against human growth hormone receptor on IM-9 cells (human) (UniProt P10912) (assay: cell-based or functional assay).
UniProt P10912, sequence (P10912 19-638): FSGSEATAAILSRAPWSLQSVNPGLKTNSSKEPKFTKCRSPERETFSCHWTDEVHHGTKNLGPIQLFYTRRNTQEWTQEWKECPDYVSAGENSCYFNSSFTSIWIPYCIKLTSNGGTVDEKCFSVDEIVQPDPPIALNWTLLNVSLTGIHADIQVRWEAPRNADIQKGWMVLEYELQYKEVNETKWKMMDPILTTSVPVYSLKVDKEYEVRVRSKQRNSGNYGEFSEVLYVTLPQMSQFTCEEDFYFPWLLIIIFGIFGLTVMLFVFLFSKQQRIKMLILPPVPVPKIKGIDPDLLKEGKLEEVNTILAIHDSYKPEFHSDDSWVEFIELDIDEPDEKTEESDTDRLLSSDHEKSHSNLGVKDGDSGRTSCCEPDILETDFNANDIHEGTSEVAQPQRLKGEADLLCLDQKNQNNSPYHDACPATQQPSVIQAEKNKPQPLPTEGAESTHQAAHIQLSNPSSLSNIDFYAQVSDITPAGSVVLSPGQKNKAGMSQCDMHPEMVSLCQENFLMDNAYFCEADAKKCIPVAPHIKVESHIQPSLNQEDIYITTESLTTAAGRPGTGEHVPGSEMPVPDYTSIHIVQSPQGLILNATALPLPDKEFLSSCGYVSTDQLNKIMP

Row | EC50 of STAT5 phosphorylation in IM-9 cells (phospho-STAT5 MFI, flow cytometry) | Substance
30 | > 200000 nM | rat growth hormone, wild type (from UniProt P01244 27-216) (ligand)
